± gives the uncertainty stated by the source.
Assay: self-splicing fitness, log relative to wild type (ln ratio); higher = more splicing; Tetrahymena group I intron in knt gene, E. coli kanamycin selection, DiMSum; sequences stand for … in CUCUCU…GGAGGGAAAAGUUAUCAGGCAUGCACCUGGUAGCUAGUCUUUAAACCAAUAGAUUGCAUCGGUUUAAAAGGCAAGACCGUCAAAUUGCGGGAAAGGGGUCAACAGCCGUUCAGUACCAAGUCUCAGGGGAAACUUUGAGAUGGCCUUGCAAAGGGUAUGGUAAUAAGCUGACGGACAUGGUCCUAACCACGCAGCCAAGUCCUAAGUCAACAGAUCUUCUGUUGAUAUGGAUGCAGUUCACAGACUAAAUGUCGGUCGGGGAAGAUGUAUUCUUCUCAUAAGAUAUAGUCGGACCUCUCCUUAAUGGGAGCUAGCGGAUGAAGUGAUGCAACACUGGAGCCGCUGGGAACUAAUUUGUAUGCGAAAGUAUAUUGAUUAGUUUUGGAGUACUCGUGGUCG
Outline: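 Pooled colonies went to amplicon sequencing on an Illumina HiSeq 2500 after six replicate transformations. The plates were LB agar with 100 μg/mL carbenicillin, 50 μM IPTG and 0.2% rhamnose, with or without 25 μg/mL kanamycin, incubated overnight at 37°C or 30°C. The E. coli BL21(DE3) library had all eight P1ex-region intron nucleotides randomised, the intron placed in the knt kanamycin-resistance gene on pET-22b(+). DiMSum fitness is the error-weighted combination of replicate fold changes, kanamycin against none, normalised to wild type.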

Sequence | self-splicing fitness (ln) (30 °C) | self-splicing fitness (ln) (37 °C)
GUUAAGCAAUAUUACGUCGC | -1.61 ± 0.21 | -1.83 ± 0.28
GAAUAGCAAUAUUACGUUGC | -4.27 ± 0.34 | -2.69 ± 0.37
AACGAGCAAUAUUACGCCUA | -3.36 ± 0.41 | -1.08 ± 0.3
UAGCAGCAAUAUUACGUGUA | -1.17 ± 0.062 | -0.62 ± 0.077
CCCUAGCAAUAUUACGUUGU | -3.84 ± 0.16 | -3.27 ± 0.16
AUCAAGCAAUAUUACGGAGG | -2.43 ± 0.096 | -1.36 ± 0.13
GCCUAGCAAUAUUACGGAUU | -0.548 ± 0.085 | 0.334 ± 0.091
CCUCAGCAAUAUUACGUCCA | -2.26 ± 0.14 | -3 ± 0.29
CUAAAGCAAUAUUACGUCGC | -3.42 ± 0.15 | -2.63 ± 0.23
GUCUAGCAAUAUUACGGUGG | -2.87 ± 0.17 | -3.96 ± 0.46
UCAAAGCAAUAUUACGCACG | -1.18 ± 0.11 | -0.632 ± 0.16
GUUCAGCAAUAUUACGAACG | -2.55 ± 0.35 | -0.953 ± 0.23
CUUAAGCAAUAUUACGGUAU | -4.7 ± 0.34 | -2.35 ± 0.22
ACGGAGCAAUAUUACGCGCU | -3.23 ± 0.3 | -1.17 ± 0.21
ACCCAGCAAUAUUACGACUG | -2.87 ± 0.23 | -2.72 ± 0.41
CACUAGCAAUAUUACGCAGU | -4.15 ± 0.42 | -2.78 ± 0.33
GUAUAGCAAUAUUACGUACA | -2.07 ± 0.28 | -0.449 ± 0.23
CAACAGCAAUAUUACGUGGU | -4.16 ± 0.12 | -2.01 ± 0.096
AUGUAGCAAUAUUACGCUGA | -1.93 ± 0.15 | -1.29 ± 0.18
AGGAAGCAAUAUUACGCCGG | -0.87 ± 0.17 | -0.612 ± 0.23
GAAAAGCAAUAUUACGGAAC | -2.14 ± 0.13 | -1.25 ± 0.15
CCCUAGCAAUAUUACGCGAG | -3.61 ± 0.19 | -3.25 ± 0.21
UGUGAGCAAUAUUACGAAAC |  | -1.59 ± 0.35
AUGAAGCAAUAUUACGUCGC | -2.24 ± 0.14 | -1.28 ± 0.18
GUAUAGCAAUAUUACGGUAG | -1.43 ± 0.095 | -1.23 ± 0.15

Sequence | self-splicing fitness (ln) (30 °C) | self-splicing fitness (ln) (37 °C)
AUGCAGCAAUAUUACGAGGG | -2.51 ± 0.15 | -3.09 ± 0.26
UACAAGCAAUAUUACGACCC | -2.31 ± 0.46 | 
GAAUAGCAAUAUUACGUCUG | -1.85 ± 0.075 | -0.674 ± 0.082
GGAUAGCAAUAUUACGUUAC | -1.87 ± 0.12 | -1.26 ± 0.15
GCGCAGCAAUAUUACGCGUG | -1.93 ± 0.11 | -1.36 ± 0.13
ACAGAGCAAUAUUACGGCCA | -3.47 ± 0.19 | -2.29 ± 0.17
GCUUAGCAAUAUUACGCACC | -0.796 ± 0.13 | 0.115 ± 0.16
GUUUAGCAAUAUUACGAGUC |  | -0.725 ± 0.21
UGUUAGCAAUAUUACGGACU | -0.161 ± 0.079 | 0.414 ± 0.093
AAGAAGCAAUAUUACGCAGG | -2.54 ± 0.14 | -1.26 ± 0.14
AUGGAGCAAUAUUACGGGAG | -2.75 ± 0.18 | -2.82 ± 0.31
UCCGAGCAAUAUUACGGAGC | -3.17 ± 0.25 | -2.67 ± 0.26
GCAGAGCAAUAUUACGUUGC |  | -1.06 ± 0.43
CCGCAGCAAUAUUACGCGGU | -3.18 ± 0.16 | -2.5 ± 0.22
GUUGAGCAAUAUUACGGUGA |  | -2.78 ± 0.44
ACCCAGCAAUAUUACGGAGC | -1.06 ± 0.083 | -0.369 ± 0.1
UGCCAGCAAUAUUACGACGA | -1.01 ± 0.12 | -1.01 ± 0.12
AGACAGCAAUAUUACGACUG | -1.14 ± 0.078 | -0.387 ± 0.084
UGGUAGCAAUAUUACGACAC | -2.43 ± 0.32 | -1.69 ± 0.18
GCCGAGCAAUAUUACGGAAU | -1.1 ± 0.09 | -0.698 ± 0.11
CCACAGCAAUAUUACGCACA | -2.44 ± 0.15 | -2.33 ± 0.25
CUAGAGCAAUAUUACGUAGA | -3.37 ± 0.16 | -1.5 ± 0.15
UGUGAGCAAUAUUACGAGGC | -3.2 ± 0.28 | -3.1 ± 0.36
UGUUAGCAAUAUUACGUAGG | -2.19 ± 0.11 | -0.461 ± 0.12
CUGGAGCAAUAUUACGCGUC | -3.41 ± 0.27 | -1.76 ± 0.27

Sequence | self-splicing fitness (ln) (30 °C) | self-splicing fitness (ln) (37 °C)
AGCGAGCAAUAUUACGCGAG | -1.35 ± 0.22 | -3.05 ± 0.4
CUCUAGCAAUAUUACGUUGU | -3.36 ± 0.2 | -3.68 ± 0.31
GGGAAGCAAUAUUACGAGGA | -3.34 ± 0.48 | -2.24 ± 0.29
GGCUAGCAAUAUUACGUCAU | -1.5 ± 0.082 | -0.278 ± 0.086
GGGAAGCAAUAUUACGGGAC | -2.61 ± 0.21 | -3.45 ± 0.21
UUGUAGCAAUAUUACGCCCA | 0.762 ± 0.34 | -0.0943 ± 0.38
AGACAGCAAUAUUACGCGGG | -3.46 ± 0.2 | -2.62 ± 0.18
UAGUAGCAAUAUUACGUUAU | -3.5 ± 0.43 | -3.13 ± 0.4
AACCAGCAAUAUUACGCCCA | -0.618 ± 0.22 | -0.865 ± 0.18
CCUCAGCAAUAUUACGAGCA | -3.04 ± 0.26 | -2.87 ± 0.25
CUUUAGCAAUAUUACGUCAU | -4.6 ± 0.39 | -2.13 ± 0.23
GACUAGCAAUAUUACGGAUU | -0.975 ± 0.066 | -0.588 ± 0.092
GUUUAGCAAUAUUACGUGCU | -2.18 ± 0.16 | -1.31 ± 0.17
AGUAAGCAAUAUUACGUAGG | -3.99 ± 0.19 | -3.09 ± 0.22
GCGAAGCAAUAUUACGCGAG | -2.08 ± 0.22 | -3.24 ± 0.3
AUAAAGCAAUAUUACGGUCA | 0.0241 ± 0.071 | 0.459 ± 0.1
GUCCAGCAAUAUUACGCUGG | -4.01 ± 0.12 | -3.25 ± 0.11
UCCAAGCAAUAUUACGUGAU | -3.53 ± 0.12 | -1.31 ± 0.097
AGCCAGCAAUAUUACGUUCA | -3.21 ± 0.15 | -2.72 ± 0.18
CAGUAGCAAUAUUACGCAAG | -1.07 ± 0.12 | -0.553 ± 0.17
GUAGAGCAAUAUUACGCGUA | -1.64 ± 0.2 | -0.093 ± 0.25
UAAAAGCAAUAUUACGAGAU | -3.14 ± 0.13 | -2.98 ± 0.2
AGUAAGCAAUAUUACGGCCA | -0.532 ± 0.14 | -0.74 ± 0.16
GAAAAGCAAUAUUACGCCAG | -2.72 ± 0.21 | -2.28 ± 0.32
CUACAGCAAUAUUACGGAUC | -4.11 ± 0.3 | -2.51 ± 0.26

Sequence | self-splicing fitness (ln) (30 °C) | self-splicing fitness (ln) (37 °C)
CUUUAGCAAUAUUACGCCGA | -2.8 ± 0.48 | -2.32 ± 0.39
CCGGAGCAAUAUUACGGGCU | -3.52 ± 0.35 | -3.75 ± 0.42
UUCUAGCAAUAUUACGAUAG |  | -2.05 ± 0.36
UGAUAGCAAUAUUACGAAAA | -1.85 ± 0.31 | -2.48 ± 0.4
UGGAAGCAAUAUUACGACCA | -0.871 ± 0.18 | -0.92 ± 0.21
CAACAGCAAUAUUACGUGCC | -3.31 ± 0.2 | -1.59 ± 0.15
CUUGAGCAAUAUUACGACAU | -3.581 ± 0.028 | -2.55 ± 0.041
AGCCAGCAAUAUUACGGUUG | -0.979 ± 0.051 | -0.86 ± 0.075
GUUCAGCAAUAUUACGAGCC | -3.38 ± 0.18 | -2.48 ± 0.24
UAGUAGCAAUAUUACGGCCG | 0.0089 ± 0.17 | -0.367 ± 0.23
CUCCAGCAAUAUUACGGCCU | -3.5 ± 0.2 | -1.63 ± 0.24
GAGGAGCAAUAUUACGUAGU | -2.29 ± 0.19 | -2.19 ± 0.3
CGUGAGCAAUAUUACGGAAG | -1.17 ± 0.1 | -1.01 ± 0.13
AAUGAGCAAUAUUACGGGCG |  | -3.07 ± 0.47
AAGAAGCAAUAUUACGGCGU | 0.0118 ± 0.086 | 0.334 ± 0.11
UUUAAGCAAUAUUACGAAUA | -1.09 ± 0.21 | -0.334 ± 0.22
CUCCAGCAAUAUUACGUGAA | -1.24 ± 0.065 | -0.328 ± 0.09
GCGUAGCAAUAUUACGUUAU | -3.72 ± 0.35 | -1.89 ± 0.18
UGGGAGCAAUAUUACGGAGC | -3.98 ± 0.46 | -1.65 ± 0.5
AUUCAGCAAUAUUACGUGGA | -2.72 ± 0.18 | -1.79 ± 0.12
UGAUAGCAAUAUUACGGGUG | -1.56 ± 0.099 | -0.678 ± 0.11
CUCCAGCAAUAUUACGCUGA | -2.59 ± 0.18 | -2.65 ± 0.22
